Target: T1, Recombinant human two-domain CD4 (Homo sapiens)
T1 construct: also called 2dCD4; N-terminal two domain fragment of human CD4
Assay: ELISA; decreasing concentrations of 2dCD4 immobilised directly on a 96 well plate; antibodies at 1 µg/ml; anti-human HRP secondary, absorbance at 450 nm
Conditions: both partners purified

B1: ibalizumab (antibody, V domains shown)
VH: QVQLQQSGPEVVKPGASVKMSCKASGYTFTSYVIHWVRQKPGQGLDWIGYINPYNDGTDYDEKFKGKATLTSDTSTSTAYMELSSLRSEDTAVYYCAREKDNYATGAWFAYWGQGTLVTVSS
VL: DIVMTQSPDSLAVSLGERVTMNCKSSQSLLYSTNQKNYLAWYQQKPGQSPKLLIYWASTRESGVPDRFSGSGSGTDFTLTISSVQAEDVAVYYCQQYYSYRTFGGGTKLEIK
notes: also called iMab; parental iMab antibody; source: HEK293T, transiently transfected, purified (Protein-A, SEC); copies: + +
  binding result: binds

— article PMC6842167 (Retrovirology, 2019)
